Laboratory results as given in patent US20140274782A1, “AFFINITY REAGENTS AND METHODS FOR DETECTION, PURIFICATION, AND PROTEOMIC ANALYSIS OF METHYLATED PROTEINS” (The Board of Trustees of the Leland Stanford Junior …, priority 2013, published 2014).

Key:
Assay in all cases: ProtoArray methylated with G9a SET domain
[1] = target: RHBDD1, G9a-methylated (human) (UniProt Q8TEB9)
[2] = target: SMAP1, G9a-methylated (human) (UniProt Q8IYB5)
[3] = target: TGDS, G9a-methylated (human) (UniProt O95455)
Chain of TGDS, G9a-methylated (human) (O95455 whole entry): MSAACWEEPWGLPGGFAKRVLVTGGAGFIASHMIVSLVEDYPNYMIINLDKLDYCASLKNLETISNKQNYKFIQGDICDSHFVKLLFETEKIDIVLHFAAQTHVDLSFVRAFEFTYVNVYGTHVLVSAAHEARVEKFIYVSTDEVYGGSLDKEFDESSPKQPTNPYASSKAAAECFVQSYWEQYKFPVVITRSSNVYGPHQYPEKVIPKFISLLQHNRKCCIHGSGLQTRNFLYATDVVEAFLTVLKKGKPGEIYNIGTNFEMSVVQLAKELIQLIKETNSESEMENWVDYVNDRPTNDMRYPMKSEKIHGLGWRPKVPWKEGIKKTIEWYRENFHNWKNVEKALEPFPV

[4] = target: UBE2D2, G9a-methylated (human) (UniProt P62837)
[5] = target: GNPTAB, G9a-methylated (human) (UniProt Q3T906)
[6] = target: LTC4S, G9a-methylated (human) (UniProt Q16873)
Chain of LTC4S, G9a-methylated (human) (Q16873 whole entry): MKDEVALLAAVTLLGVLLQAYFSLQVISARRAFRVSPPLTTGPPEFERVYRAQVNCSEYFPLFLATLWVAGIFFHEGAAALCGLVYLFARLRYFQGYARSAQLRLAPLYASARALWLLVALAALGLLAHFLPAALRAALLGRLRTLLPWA

[7] = target: GPR108, G9a-methylated (human) (UniProt Q9NPR9)
Chain of GPR108, G9a-methylated (human) (Q9NPR9 33-543 limits assumed): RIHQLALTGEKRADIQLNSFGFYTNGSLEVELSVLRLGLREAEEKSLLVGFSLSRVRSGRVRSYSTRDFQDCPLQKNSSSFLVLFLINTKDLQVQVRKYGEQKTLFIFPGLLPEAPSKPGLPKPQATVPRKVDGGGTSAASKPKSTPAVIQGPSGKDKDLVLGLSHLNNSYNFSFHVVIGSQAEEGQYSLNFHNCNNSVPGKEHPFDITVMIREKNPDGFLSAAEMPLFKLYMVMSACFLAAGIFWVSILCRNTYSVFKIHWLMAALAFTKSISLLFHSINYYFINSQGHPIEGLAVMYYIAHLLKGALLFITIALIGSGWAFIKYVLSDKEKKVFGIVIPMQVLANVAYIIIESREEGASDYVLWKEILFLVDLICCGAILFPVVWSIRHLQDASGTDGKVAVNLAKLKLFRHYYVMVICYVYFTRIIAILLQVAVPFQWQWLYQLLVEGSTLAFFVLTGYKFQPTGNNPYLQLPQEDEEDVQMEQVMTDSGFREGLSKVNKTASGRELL

[8] = target: C11orf73, G9a-methylated (human) (UniProt Q53FT3)
[9] = target: SH3YL1 (clone MGC:12275), G9a-methylated (human) (UniProt Q96HL8)
Chain of SH3YL1 (clone MGC:12275), G9a-methylated (human) (Q96HL8 whole entry): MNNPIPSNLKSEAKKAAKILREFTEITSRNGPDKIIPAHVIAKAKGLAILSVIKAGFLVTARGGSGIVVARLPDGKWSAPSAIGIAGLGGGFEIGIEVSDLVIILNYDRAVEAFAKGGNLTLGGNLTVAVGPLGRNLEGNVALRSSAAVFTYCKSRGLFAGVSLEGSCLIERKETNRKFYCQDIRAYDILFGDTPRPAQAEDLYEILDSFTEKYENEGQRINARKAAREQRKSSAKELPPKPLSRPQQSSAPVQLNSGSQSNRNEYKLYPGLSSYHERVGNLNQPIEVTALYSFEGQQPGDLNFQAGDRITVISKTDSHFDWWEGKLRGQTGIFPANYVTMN

[10] = target: C10orf58, G9a-methylated (human) (UniProt Q9BRX8)
[11] = target: C10orf83, G9a-methylated (human) (UniProt Q8NDC4)
[12] = target: ZNF695, G9a-methylated (human) (UniProt Q8IW36)
[13] = target: CRYZL1, G9a-methylated (human) (UniProt O95825)
[14] = target: CTXN1, G9a-methylated (human) (UniProt P60606)
Chain of CTXN1, G9a-methylated (human) (P60606 whole entry): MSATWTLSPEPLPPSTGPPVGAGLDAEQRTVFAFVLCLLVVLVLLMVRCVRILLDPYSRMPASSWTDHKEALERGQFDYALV

[15] = target: LRRC20, G9a-methylated (human) (UniProt Q8TCA0)
[16] = target: DIRAS1, G9a-methylated (human) (UniProt O95057)
[17] = target: TMED5, G9a-methylated (human) (UniProt Q9Y3A6)
Chain of TMED5, G9a-methylated (human) (Q9Y3A6 28-229 limits assumed): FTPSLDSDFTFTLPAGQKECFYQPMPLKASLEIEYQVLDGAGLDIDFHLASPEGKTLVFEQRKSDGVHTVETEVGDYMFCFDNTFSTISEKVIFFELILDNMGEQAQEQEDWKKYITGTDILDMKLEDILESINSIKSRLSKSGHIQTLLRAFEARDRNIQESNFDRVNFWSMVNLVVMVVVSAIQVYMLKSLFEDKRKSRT

[18] = target: GGPS1, G9a-methylated (human) (UniProt O95749)
Chain of GGPS1, G9a-methylated (human) (O95749 whole entry): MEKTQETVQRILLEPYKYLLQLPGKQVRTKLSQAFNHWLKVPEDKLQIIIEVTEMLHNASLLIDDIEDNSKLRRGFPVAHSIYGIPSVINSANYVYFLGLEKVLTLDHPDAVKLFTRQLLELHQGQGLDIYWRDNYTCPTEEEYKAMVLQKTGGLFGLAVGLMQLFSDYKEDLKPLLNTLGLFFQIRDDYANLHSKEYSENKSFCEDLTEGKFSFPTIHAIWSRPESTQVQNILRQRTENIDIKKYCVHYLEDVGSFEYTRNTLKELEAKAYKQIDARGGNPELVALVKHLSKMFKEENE

[19] = target: PPARG, G9a-methylated (human) (UniProt P37231)
[20] = target: SH3YL1 (hit 65), G9a-methylated (human) (UniProt Q96HL8)
Chain of SH3YL1 (hit 65), G9a-methylated (human) (Q96HL8 whole entry): as the sequence (Q96HL8 whole entry) above

[21] = target: CRB3, G9a-methylated (human) (UniProt Q9BUF7)
[22] = target: YPEL5, G9a-methylated (human) (UniProt P62699)
[23] = target: RAB7B, G9a-methylated (human) (UniProt Q96AH8)
[24] = target: CCL24, G9a-methylated (human) (UniProt O00175)
Chain of CCL24, G9a-methylated (human) (O00175 27-119 limits assumed): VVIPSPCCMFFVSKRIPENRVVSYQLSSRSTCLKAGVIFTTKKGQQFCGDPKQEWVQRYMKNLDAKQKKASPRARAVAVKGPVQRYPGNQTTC

[25] = target: GAL, G9a-methylated (human) (UniProt P22466)
Chain of GAL, G9a-methylated (human) (P22466 20-123 limits assumed): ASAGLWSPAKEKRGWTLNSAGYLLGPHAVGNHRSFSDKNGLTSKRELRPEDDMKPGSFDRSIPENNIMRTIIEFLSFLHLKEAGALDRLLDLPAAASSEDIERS

[26] = target: C12orf60, G9a-methylated (human) (UniProt Q5U649)
[27] = target: CDK5RAP3, G9a-methylated (human) (UniProt Q96JB5)
Chain of CDK5RAP3, G9a-methylated (human) (Q96JB5 whole entry): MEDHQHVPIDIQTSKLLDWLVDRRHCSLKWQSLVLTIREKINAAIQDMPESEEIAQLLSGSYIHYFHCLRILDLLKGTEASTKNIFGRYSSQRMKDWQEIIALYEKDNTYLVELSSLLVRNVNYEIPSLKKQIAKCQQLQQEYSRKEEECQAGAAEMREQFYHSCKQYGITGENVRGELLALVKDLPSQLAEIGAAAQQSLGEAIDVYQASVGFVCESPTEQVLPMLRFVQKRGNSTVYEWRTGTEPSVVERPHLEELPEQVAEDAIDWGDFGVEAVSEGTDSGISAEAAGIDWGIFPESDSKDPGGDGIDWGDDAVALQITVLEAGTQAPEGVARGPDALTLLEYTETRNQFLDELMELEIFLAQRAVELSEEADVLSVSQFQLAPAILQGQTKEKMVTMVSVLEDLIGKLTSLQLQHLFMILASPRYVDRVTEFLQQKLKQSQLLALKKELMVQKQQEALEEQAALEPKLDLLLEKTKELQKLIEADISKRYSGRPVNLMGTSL

[28] = target: C12orf62, G9a-methylated (human) (UniProt Q96I36)
[29] = target: NME7, G9a-methylated (human) (UniProt Q9Y5B8)
Chain of NME7, G9a-methylated (human) (Q9Y5B8 37-376 limits assumed): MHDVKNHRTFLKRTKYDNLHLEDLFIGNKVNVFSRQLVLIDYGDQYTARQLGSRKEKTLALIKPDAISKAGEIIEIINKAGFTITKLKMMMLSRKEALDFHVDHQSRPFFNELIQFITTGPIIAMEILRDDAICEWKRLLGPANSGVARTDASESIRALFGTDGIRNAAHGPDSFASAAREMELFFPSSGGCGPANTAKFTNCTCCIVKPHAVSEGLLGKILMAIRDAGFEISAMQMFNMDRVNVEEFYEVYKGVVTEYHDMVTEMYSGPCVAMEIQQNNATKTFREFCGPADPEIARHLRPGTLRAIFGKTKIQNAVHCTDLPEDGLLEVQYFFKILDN

[30] = target: FTH1 (hit 104), G9a-methylated (human) (UniProt P02794)
Chain of FTH1 (hit 104), G9a-methylated (human) (P02794 whole entry): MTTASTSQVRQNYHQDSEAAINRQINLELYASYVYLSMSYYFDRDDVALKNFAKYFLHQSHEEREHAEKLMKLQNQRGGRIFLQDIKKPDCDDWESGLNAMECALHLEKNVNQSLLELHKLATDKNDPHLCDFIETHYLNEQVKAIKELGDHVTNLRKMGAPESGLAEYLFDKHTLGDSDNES

[31] = target: CAB39L, G9a-methylated (human) (UniProt Q9H9S4)
[32] = target: DYNC2LI1, G9a-methylated (human) (UniProt Q8TCX1)
[33] = target: KCTD7, G9a-methylated (human) (UniProt Q96MP8)
[34] = target: CDKL5, G9a-methylated (human) (UniProt O76039)
[35] = target: GFOD1, G9a-methylated (human) (UniProt Q9NXC2)
Chain of GFOD1, G9a-methylated (human) (Q9NXC2 22-390 limits assumed): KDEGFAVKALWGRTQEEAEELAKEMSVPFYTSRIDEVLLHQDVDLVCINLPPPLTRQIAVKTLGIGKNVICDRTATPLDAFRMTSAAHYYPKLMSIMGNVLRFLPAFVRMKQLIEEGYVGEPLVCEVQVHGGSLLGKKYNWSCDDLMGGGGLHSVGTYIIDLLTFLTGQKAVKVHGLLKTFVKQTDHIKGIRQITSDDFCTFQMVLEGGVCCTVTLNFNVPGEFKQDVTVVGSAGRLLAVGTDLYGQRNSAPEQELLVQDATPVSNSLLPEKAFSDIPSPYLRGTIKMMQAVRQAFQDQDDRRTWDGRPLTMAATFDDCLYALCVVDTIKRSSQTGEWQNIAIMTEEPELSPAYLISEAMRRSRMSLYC

[36] = target: ACSL4, G9a-methylated (human) (UniProt O60488)
[37] = target: C12orf23, G9a-methylated (human) (UniProt Q8WUH6)
[38] = target: LARP6, G9a-methylated (human) (UniProt Q9BRS8)
[39] = target: FKBP14, G9a-methylated (human) (UniProt Q9NWM8)
[40] = target: SSR4, G9a-methylated (human) (UniProt P51571)
[41] = target: CD79A, G9a-methylated (human) (UniProt P11912)
Chain of CD79A, G9a-methylated (human) (P11912 33-226 limits assumed): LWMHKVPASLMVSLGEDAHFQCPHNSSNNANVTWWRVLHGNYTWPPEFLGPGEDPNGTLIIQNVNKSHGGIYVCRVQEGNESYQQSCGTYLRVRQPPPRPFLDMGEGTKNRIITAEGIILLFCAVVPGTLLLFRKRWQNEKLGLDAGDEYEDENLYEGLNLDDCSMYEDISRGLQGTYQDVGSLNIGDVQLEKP

[42] = target: SMYD5, G9a-methylated (human) (UniProt Q6GMV2)
[43] = target: NME1, G9a-methylated (human) (UniProt P15531)
[44] = target: PTCD2, G9a-methylated (human) (UniProt Q8WV60)
Chain of PTCD2, G9a-methylated (human) (Q8WV60 whole entry): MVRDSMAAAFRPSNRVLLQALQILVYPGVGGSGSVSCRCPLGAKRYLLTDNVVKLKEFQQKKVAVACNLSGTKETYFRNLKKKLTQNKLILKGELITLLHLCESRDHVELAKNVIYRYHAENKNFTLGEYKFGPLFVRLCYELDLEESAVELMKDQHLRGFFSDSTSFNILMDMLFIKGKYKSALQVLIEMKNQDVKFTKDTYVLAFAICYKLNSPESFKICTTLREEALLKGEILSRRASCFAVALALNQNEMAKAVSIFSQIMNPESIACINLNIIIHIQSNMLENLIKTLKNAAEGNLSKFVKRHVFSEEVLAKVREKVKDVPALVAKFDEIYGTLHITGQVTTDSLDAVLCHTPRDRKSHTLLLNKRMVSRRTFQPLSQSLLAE

[45] = target: RAB33B, G9a-methylated (human) (UniProt Q9H082)

Chain of RHBDD1, G9a-methylated (human) (Q8TEB9 whole entry): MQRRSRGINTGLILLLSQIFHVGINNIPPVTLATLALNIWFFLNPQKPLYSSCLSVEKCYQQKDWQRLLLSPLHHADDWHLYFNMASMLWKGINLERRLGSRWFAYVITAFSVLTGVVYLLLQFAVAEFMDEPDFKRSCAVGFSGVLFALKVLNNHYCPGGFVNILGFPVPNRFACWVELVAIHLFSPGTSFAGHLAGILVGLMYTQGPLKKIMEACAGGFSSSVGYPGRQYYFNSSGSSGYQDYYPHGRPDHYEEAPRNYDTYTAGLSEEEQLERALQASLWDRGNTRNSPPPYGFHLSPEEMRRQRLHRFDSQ

G9a Average SNR [1]: 12.3 | G9a Average SNR [2]: 21.5 | G9a Average SNR [3]: 13.6 | G9a Average SNR [4]: 37.2 | G9a Average SNR [5]: 16.5 | G9a Average SNR [6]: 14.1 | G9a Average SNR [7]: 19.2 | G9a Average SNR [8]: 13.5 | G9a Average SNR [9]: 12.9 | G9a Average SNR [10]: 17 | G9a Average SNR [11]: 15.4 | G9a Average SNR [12]: 20.3 | G9a Average SNR [13]: 11.2 | G9a Average SNR [14]: 19.7 | G9a Average SNR [15]: 32.3 | G9a Average SNR [16]: 29.2 | G9a Average SNR [17]: 15.1 | G9a Average SNR [18]: 12.3 | G9a Average SNR [19]: 12.8 | G9a Average SNR [20]: 16.5 | G9a Average SNR [21]: 15.2 | G9a Average SNR [22]: 13.4 | G9a Average SNR [23]: 12.7 | G9a Average SNR [24]: 34.5 | G9a Average SNR [25]: 13.1 | G9a Average SNR [26]: 12.4 | G9a Average SNR [27]: 13.8 | G9a Average SNR [28]: 14.9 | G9a Average SNR [29]: 14.1 | G9a Average SNR [30]: 30.4 | G9a Average SNR [31]: 14.6 | G9a Average SNR [32]: 11.6 | G9a Average SNR [33]: 14.7 | G9a Average SNR [34]: 19.7 | G9a Average SNR [35]: 16.4 | G9a Average SNR [36]: 13.5 | G9a Average SNR [37]: 12.7 | G9a Average SNR [38]: 15.6 | G9a Average SNR [39]: 15 | G9a Average SNR [40]: 14.4 | G9a Average SNR [41]: 13.8 | G9a Average SNR [42]: 20.7 | G9a Average SNR [43]: 15.2 | G9a Average SNR [44]: 19.4 | G9a Average SNR [45]: 20.2
Substance: 3× Flag-3×MBT (designed binder)
